Several values for one entry are separate records, joined by “and”; a condition that tells them apart may be missing. Equal values may be shown once.

The target in experiment [1] is CXCL4. Nature of the experiment: native MS; pure chemokine, 20 μM in 250 mM ammonium acetate buffer, nanoelectrospray, Waters Synapt G2-S, ion mobility separation bypassed.
Experiment [2] deals with CXCL4. Description: native MS; chemokine (20 μM solution in 250 mM ammonium acetate) mixed with fondaparinux at 1:1 molar ratio, nanoelectrospray, spectra deconvoluted in UniDec.

What is called stoichiometry N is the number of molecules, sites or subunits per partner or assembly. In the case of CXCL4 (natural protein), the stoichiometry N in experiment [1] is 4; in experiment [2], 4 and 2.

Source of the values: publication PMC11228995.
